Results on one substance are retold here after patent US20230045873A1.

The target in the assay is oxMIF (recombinant human MIF immobilized into microwell plates, transforming MIF to oxMIF) (human) (UniProt P14174). Description: ELISA on immobilized MIF (oxMIF), protein L-HRP detection, mean of triplicate.
oxMIF (recombinant human MIF immobilized into microwell plates, transforming MIF to oxMIF) (human), sequence (P14174 2-115 limits assumed): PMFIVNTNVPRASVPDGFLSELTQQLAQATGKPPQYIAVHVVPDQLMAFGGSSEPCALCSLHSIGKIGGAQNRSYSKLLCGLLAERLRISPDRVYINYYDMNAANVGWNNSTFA

For “Imalumab (C0008), anti-oxMIF monospecific antibody”, the 50% effective concentration (EC50) turned out to be 0.6 nM.
